Source: the supplement of paper PMC10126150
± gives the standard deviation of the averaged measurements.

Test system: ATP
Experiment: switch fluorescence ratio, 500 uM ATP over buffer (Cy3 cluster intensity, sum of 5 cycles each) (fold (ratio)); higher = stronger signal-on switching upon ATP binding; sequences stand for … in TCGTCGGCAGCGTCAGATGTGTATAAGAGACAGTTTTTTTTTTTTTTTTTTTTTTTTT…TC
Conditions: aptamer strand: ATP DNA aptamer (quencher-CACCTGGGGGAGTATTGCGGAGGAAGG + anchor), 100 nM annealed; ATP concentration: 500 uM
Outline: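 Values give the fluorescence ratio for each switch-domain sequence, averaged from per-cluster ratios of summed target-cycle to summed buffer-cycle Cy3 intensity. The Cy3-labelled switching-strand clusters sat on a modified Illumina MiSeq flow-cell, were annealed to 100 nM quencher-labelled ATP aptamer, and were imaged in selection buffer, then after 15 min with 500 uM ATP at 22 °C. Five cycles ran with NaOH stripping and re-annealing between them, and clusters outside 100-1000 RFU were excluded.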
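Also: ATP exposure 15 min at 22 °C before imaging.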

Row | Sequence | switch fluorescence ratio
1 | TTGAATACAC | 1.11 ± 0.17
2 | TCAAGAGGCG | 1.019 ± 0.0029
3 | TTGAGGTTGA | 0.994 ± 0.029
4 | TGTTTCATTC | 0.978 ± 0.012
5 | TTCATATTTT | 0.996 ± 0.015
6 | TTTCGGGTAT | 1.05 ± 0.011
7 | CCTCTATGAT | 1.42 ± 0.044
8 | TATTGCATTA | 1.03 ± 0.013
9 | CGTTGAGATC | 1.06 ± 0.059
10 | TAATGCGTGG | 0.999 ± 0.032
11 | TCTTACGATC | 1 ± 0.021
12 | TCCGTGTGTG | 0.989 ± 0.0075
13 | TAGAGGCCGG | 1 ± 0.003
14 | GGTATTCTGT | 0.951 ± 0.03
15 | TGGCGGAGTC | 1 ± 0.022
16 | GGGGAATTTG | 1.01 ± 0.041
17 | GGAGATTTGT | 1.01 ± 0.032
18 | GGAAGGTTCG | 1.01 ± 0.033
19 | TTAGGTAATA | 1 ± 0.022
20 | ATTTGGGGAG | 1.02 ± 0.048
21 | GTAGGCAAAT | 1.029 ± 0.003
22 | TTCGGCTTGA | 0.994 ± 0.028
23 | TTTGTTTTGT | 1.01 ± 0.051
24 | CCCCGTTTCG | 1.08 ± 0.046
25 | TGAGTATATA | 1.02 ± 0.014

Row | Sequence | switch fluorescence ratio
26 | ATTGGAGGGC | 0.96 ± 0.038
27 | CGGATATTGC | 1 ± 0.059
28 | ACCAGGTCGT | 1.51 ± 0.05
29 | TCCGGCTTTG | 0.953 ± 0.075
30 | GATGTTAGTA | 0.973 ± 0.018
31 | GCGTGACGTA | 1 ± 0.088
32 | AGAATGTGGG | 0.996 ± 0.034
33 | AGCAAATGGT | 1.07 ± 0.051
34 | GGATGGGGGC | 0.992 ± 0.023
35 | AGCTAAAACG | 1.14 ± 0.19
36 | GTGGTAGGCG | 0.975 ± 0.014
37 | CGATAAATTA | 0.9971 ± 0.0044
38 | GGGGGCGTTA | 1.02 ± 0.026
39 | GGGATCGGGA | 0.995 ± 0.013
40 | ATTCATGGGT | 0.998 ± 0.024
41 | TACAGAGATT | 0.9778 ± 0.0084
42 | GGCGCAAGGA | 2.41 ± 1.9
43 | TGATACCTGT | 0.975 ± 0.068
44 | TTGAGGTGGG | 1.23 ± 0.41
45 | CAAATATTTT | 0.996 ± 0.017
46 | AGTTTTTTGT | 0.979 ± 0.042
47 | TCAGGCAGGC | 0.936 ± 0.052
48 | TCAGTGACGG | 1.0248 ± 0.00071
49 | TAAGCTTATG | 0.9852 ± 0.0033
50 | GTTCAATTGG | 0.98 ± 0.021

Row | Sequence | switch fluorescence ratio
51 | CTGTGGTATT | 0.985 ± 0.018
52 | TAGTTATTAC | 1.08 ± 0.14
53 | TGGGGAAGTG | 0.987 ± 0.025
54 | TTATTTTTTT | 1 ± 0.033
55 | ATGAAATAAA | 0.9835 ± 0.0022
56 | TTAGTGGGGT | 1.01 ± 0.028
57 | TCCAAGGTCC | 1.04 ± 0.042
58 | AAAAAGAAAG | 1.02 ± 0.022
59 | GGCGAGAACG | 0.986 ± 0.018
60 | GATGTCAGGG | 1.05 ± 0.021
61 | GGTCATGCGG | 1.01 ± 0.021
62 | TTATTTTAGT | 1 ± 0.017
63 | TTTAAATTGA | 0.986 ± 0.02
64 | AGGCAACGAA | 1.04 ± 0.039
65 | CCGGATCGCG | 1.043 ± 0.0047
66 | ATAACACAGG | 1.279 ± 0.0016
67 | ATTTACTGCG | 1.01 ± 0.041
68 | ACGGTGTGGC | 1.03 ± 0.072
69 | GTTTCAGGTA | 1.02 ± 0.029
70 | TCATCAGTGA | 0.998 ± 0.028
71 | ATTAAGGAGG | 0.99014 ± 0.00011
72 | CATAGGGGGG | 0.988 ± 0.015
73 | TTTGAGGGTG | 1.07 ± 0.065
74 | TGTCGGGGAG | 1.01 ± 0.018
75 | TAAAGTTAGC | 0.995 ± 0.028

Row | Sequence | switch fluorescence ratio
76 | GAATACGGGG | 1.06 ± 0.044
77 | GGCAACGCGC | 0.997 ± 0.031
78 | AGGGTGGAAG | 0.993 ± 0.038
79 | ACCCAGACGC | 1.35 ± 0.058
80 | TTAGCTAAAA | 1.009 ± 0.01
81 | AATTCTGGTT | 0.9664 ± 0.0018
82 | GGCCGGCTAA | 0.997 ± 0.011
83 | TGTTTGAGAT | 1.01 ± 0.015
84 | TTACTGGGGG | 0.999 ± 0.027
85 | TTCGGATAGT | 0.98 ± 0.011
86 | TTTGGTTGAG | 1 ± 0.047
87 | TTTTTGCTAT | 1.06 ± 0.062
88 | CTCCCACACG | 2.35 ± 0.36
89 | CGACTAAAAT | 1.013 ± 0.0066
90 | TTTTCAATTT | 0.9758 ± 0.0064
91 | GGTTTTTACG | 0.985 ± 0.061
92 | CAGTGCGCTA | 1.15 ± 0.02
93 | TTTTTCCTGA | 1.02 ± 0.011
94 | ATAGTCAATT | 0.993 ± 0.071
95 | AAAATTTTGG | 1 ± 0.043
96 | TCCAGGACCA | 1.03 ± 0.042
97 | CAGGTCAGGT | 1.01 ± 0.045
98 | TTAAGAATTA | 1.03 ± 0.047
99 | AGCTTGGGCG | 0.995 ± 0.11
100 | TCATACCATA | 1.09 ± 0.03

Row | Sequence | switch fluorescence ratio
101 | CTATCTGCGG | 1.04 ± 0.046
102 | CGTAGGGGTT | 0.989 ± 0.028
103 | CTTGGTGACG | 1.09 ± 0.031
104 | ATGTTTTTTT | 0.9915 ± 0.0073
105 | TATAGGGGGC | 1.03 ± 0.05
106 | GTATGTAGTA | 0.985 ± 0.0098
107 | GGGATGGCTG | 1.01 ± 0.055
108 | TCCGGGCCTT | 1.02 ± 0.09
109 | TGCGTCTATT | 1.05 ± 0.078
110 | TTAAAGCTGT | 1.02 ± 0.063
111 | AGACCGCAGT | 1.137 ± 0.0071
112 | TGGATGTTAT | 1.02 ± 0.092
113 | GGAAAGATGT | 1.01 ± 0.027
114 | AGGAAAGATT | 1.01 ± 0.028
115 | TTTTTTTTCG | 1.05 ± 0.12
116 | CTGAGGCTGG | 0.9933 ± 0.0021
117 | TTTGAGTGGT | 0.993 ± 0.013
118 | AAAAGCGTTG | 0.999 ± 0.013
119 | GGGTATTGAG | 0.991 ± 0.012
120 | TCGATACATG | 0.993 ± 0.034
121 | TTGTTACGGA | 1.01 ± 0.017
122 | ATAGAATTTA | 0.956 ± 0.024
123 | GGTATCACCT | 1.04 ± 0.034
124 | GGAAAGCGTG | 0.993 ± 0.084
125 | AGCGCTTGTG | 1.02 ± 0.038

Row | Sequence | switch fluorescence ratio
126 | GGTTTGGTAG | 0.9873 ± 0.0029
127 | TGGTAGAGAG | 0.9883 ± 0.0075
128 | TTTTTCGCCT | 1.01 ± 0.029
129 | TGAATAGGGA | 0.982 ± 0.05
130 | AGACGGGATG | 0.973 ± 0.084
131 | TTATTCTCGG | 1.04 ± 0.068
132 | CCGAAATTTA | 1.19 ± 0.02
133 | CTGCTAGCGG | 1.02 ± 0.065
134 | GTTACATGCG | 0.976 ± 0.02
135 | TTCTGATGGA | 0.978 ± 0.036
136 | TCGGAGAGGG | 0.974 ± 0.037
137 | TGGCTTTGGA | 0.988 ± 0.022
138 | TATGAGCAGC | 1.01 ± 0.066
139 | TTATTTAAGG | 1.01 ± 0.031
140 | GGTTACAATT | 0.982 ± 0.032
141 | TTTAGTTGTT | 1.01 ± 0.03
142 | AATTTTTTAA | 0.985 ± 0.019
143 | CGATGAAGGC | 1.07 ± 0.031
144 | TGGGATAGGT | 1.01 ± 0.06
145 | GGGGTTCATT | 1.01 ± 0.04
146 | TTCCGGATGG | 1.01 ± 0.021
147 | ACATAGCGAA | 1.13 ± 0.026
148 | GCCGTAACGG | 0.982 ± 0.014
149 | GATAGTATGC | 0.961 ± 0.059
150 | ACAGCGCAAT | 2.12 ± 0.94

Row | Sequence | switch fluorescence ratio
151 | AGCAAGGCGT | 1.03 ± 0.043
152 | ATGGGCCCCT | 0.987 ± 0.025
153 | ATTGCCCTTA | 1.06 ± 0.071
154 | ACACGGGGAA | 1.0184 ± 0.00046
155 | GGGAGGCCGT | 1.04 ± 0.027
156 | GCCGGCTTTG | 1.03 ± 0.026
157 | GATAGCCGAT | 1.031 ± 0.0015
158 | TAGTTTGGGG | 0.999 ± 0.032
159 | TTGCGTTGTT | 0.9695 ± 0.0043
160 | TCGTGTGATG | 0.9686 ± 0.0049
161 | GGAGGGATCT | 0.966 ± 0.011
162 | TTTGCATTTG | 1.03 ± 0.013
163 | TTTCCGTTGA | 1.23 ± 0.32
164 | CGTATGACTA | 0.984 ± 0.05
165 | CGCTGGGGTT | 0.9962 ± 0.0047
166 | GGCGACCTGG | 0.993 ± 0.021
167 | TCTTAGGCGG | 0.977 ± 0.039
168 | GGGGAGAAAC | 1.08 ± 0.042
169 | CGGTGAGTAG | 0.9876 ± 0.0092
170 | TAAGACGGTT | 1.01 ± 0.015
171 | GAGGGACTGG | 0.988 ± 0.084
172 | GTCAATTGCA | 0.999 ± 0.026
173 | TAAAGGCTTG | 0.976 ± 0.034
174 | TATTGGTGGT | 0.995 ± 0.027
175 | TTTTTAGTCG | 1 ± 0.036

Row | Sequence | switch fluorescence ratio
176 | GCTATCTCTT | 1.01 ± 0.012
177 | TGAGCTGCGT | 1.01 ± 0.022
178 | AATCGTTTTT | 1.02 ± 0.12
179 | ATGCCTGGGT | 0.999 ± 0.034
180 | CGAAGTCTTT | 0.989 ± 0.044
181 | TGGGTGCACG | 0.996 ± 0.057
182 | CTTTGGTGTC | 1.01 ± 0.029
183 | TCTGTCCTTC | 1.06 ± 0.054
184 | TTGGGTCAGA | 0.981 ± 0.018
185 | TTTCAAAGGG | 0.994 ± 0.015
186 | ATGTTGGGCA | 1.01 ± 0.028
187 | GGAAGGTACG | 0.9856 ± 0.0062
188 | GGTTGCGTTT | 0.9997 ± 0.001
189 | TTGCGGGGGT | 1 ± 0.054
190 | GGAGAAATCG | 1.06 ± 0.012
191 | TATAATTAAT | 0.982 ± 0.029
192 | CAGCAGAGGT | 1.02 ± 0.013
193 | CCGTTTAGGG | 0.999 ± 0.016
194 | ATTGTCATGG | 0.999 ± 0.028
195 | AGTATTTTGG | 1.01 ± 0.018
196 | CTCGTATTTA | 0.976 ± 0.021
197 | GAGAGGGTAC | 1.03 ± 0.063
198 | AGGGATACCT | 1.04 ± 0.018
199 | CAGGGGGATA | 1.3 ± 0.43
200 | AAGTTCACCA | 1.02 ± 0.018
